Assay results: patent US20070087413A1 (GENHUNTER, published 2007)
“And” between values parts separate entries of the source, which are not always exact repeats. Equal values may be shown once.

Biological target: human TNF-α (R & D Systems) (human, UniProt P01375 77-233)
Experiment: cell-based or functional assay

Sequence of human TNF-α (R & D Systems) (P01375 77-233 limits assumed): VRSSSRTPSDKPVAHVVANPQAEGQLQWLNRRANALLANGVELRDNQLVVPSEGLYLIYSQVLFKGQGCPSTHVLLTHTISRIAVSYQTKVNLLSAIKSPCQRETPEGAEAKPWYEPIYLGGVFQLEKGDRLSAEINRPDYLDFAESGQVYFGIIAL

apparent Ki-50 (50% inhibition) of TNF-α mediated apoptosis of WEHI-13VAR cells, human TNF-α at 0.5 ng/mL: ~2 ng/mL and ~8e-12 M
B1: trimeric soluble human TNF-RII-T2 fusion protein (human soluble TNF-RII fused to the T2 C-propeptide of human α(I) collagen) (receptor)
chain: LPAQVAFTPYAPEPGSTCRLREYYDQTAQMCCSKCSPGQHAKVFCTKTSDTVCDSCEDSTYTQLWNWVPECLSCGSRCSSDQVETQACTREQNRICTCRPGWYCALSKQEGCRLCAPLRKCRPGFGVARPGTETSDVVCKPCAPGTFSNTTSSTDICRPHQICNVVAIPGNASMDAVCTSTSPTRSMAPGAVHLPQPVSTRSQHTQPTPEPSTAPSTSFLLPMGPSPPAEGSTGSDANVVRDRDLEVDTTLKSLSQQIENIRSPEGSRKNPARTCRDLKMCHSDWKSGEYWIDPNQGCNLDAIKVFCNMETGETCVYPTQPSVAQKNWYISKNPKDKRHVWFGESMTDGFQFEYGGQGSDPADVAIQLTFLRLMSTEASQNITYHCKNSVAYMDQQTGNLKKALLLKGSNEIEIRAEGNSRFTYSVTVDGCTSHTGAWGKTVIEYKTTKSSRLPIIDVAPLDVGAPDQEFGFDVGPVCFL
